In patent US20210140973A1 (NITTO BOSEKI, published 2021):

Legend:
Assay in all cases: indirect ELISA, antigen coated 1 µg/mL, antibody 1 µg/mL; no-antigen well 0.042
[1] = molecular target: Myeloma human IgE (Abcam) (human, UniProt P01854-1 1-428)
Description: (§1) Myeloma human IgA1 (Abcam), Myeloma human IgA2 (Abcam), Myeloma human IgD (Abcam), Myeloma human IgE (Abcam), Myeloma human IgM (Abcam), Myeloma human IgG1 (EMD Millipore), Myeloma human IgG2 (EMD Millipore), Myeloma human IgG3 (Sigma-Aldrich Co. LLC), and Myeloma human IgG4 (EMD Millipore) were adjusted to 1 μg/mL with PBS(−). The adjusted samples were added to a 96-well plate (Thermo Fisher Scientific) by 100 μL, respectively. The plate was shaken by a shaker under the condition of 700 rpm and 25.0° C. for 1 hour. The solutions were discarded, the plate was cleaned with 300 μL of PBST 3 times, 100 μL of a blocking buffer solution was added to each well, and then the plate was stored at 4° C. one night or more. Similarly, after cleaning with PBST, the MaI4-08 and MaI4-09-produced antibodies were adjusted to 1 μg/mL with an antibody dilute buffer solution and then added to each well by 100 μL, and the plate was shaken under the same condition as mentioned above. Similarly, after cleaning with PBST, a HRP labeled anti-mouse IgG antibody (Abcam) diluted 4000-fold with an antibody dilute buffer solution was added to each well by 100 μL, and the plate was shaken under the same condition as mentioned above. Similarly, after cleaning with PBST, 100 μL of SureBlue (KPL) was added. 5 or 3 minutes later, 100 μL of 0.5 mol/L sulfuric acid (Wako Pure Chemical Corporation) was added to each of MaI4-08 and MaI4-09. Absorbance at a wavelength of 450 nm was measured with a microplate reader (BIO-RAD Laboratories, Inc.). As a result, a strong signal was given to Myeloma human IgG4 as compared to the other samples (Tables 2 and 3, and FIGS. 2 and 3).

[2] = molecular target: T1, Myeloma human IgG2 (EMD Millipore) (human)
T1 construct: Bought myeloma protein
T1 sequence (constant, as listed by the source limits assumed): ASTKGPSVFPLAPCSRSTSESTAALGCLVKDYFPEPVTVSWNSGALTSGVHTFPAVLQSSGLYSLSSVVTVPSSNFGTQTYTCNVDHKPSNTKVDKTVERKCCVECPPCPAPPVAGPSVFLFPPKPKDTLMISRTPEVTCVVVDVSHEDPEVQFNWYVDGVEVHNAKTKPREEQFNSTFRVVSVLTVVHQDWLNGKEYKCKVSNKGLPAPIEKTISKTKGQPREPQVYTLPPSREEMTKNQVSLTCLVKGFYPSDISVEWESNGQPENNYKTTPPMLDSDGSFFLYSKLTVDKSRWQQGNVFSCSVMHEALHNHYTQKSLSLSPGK
Description: as §1

[3] = molecular target: Myeloma human IgA1 (Abcam) (human, UniProt P01876-1 1-353)
Sequence of Myeloma human IgA1 (Abcam) (P01876 other isoform, or with tags, fused parts or gaps): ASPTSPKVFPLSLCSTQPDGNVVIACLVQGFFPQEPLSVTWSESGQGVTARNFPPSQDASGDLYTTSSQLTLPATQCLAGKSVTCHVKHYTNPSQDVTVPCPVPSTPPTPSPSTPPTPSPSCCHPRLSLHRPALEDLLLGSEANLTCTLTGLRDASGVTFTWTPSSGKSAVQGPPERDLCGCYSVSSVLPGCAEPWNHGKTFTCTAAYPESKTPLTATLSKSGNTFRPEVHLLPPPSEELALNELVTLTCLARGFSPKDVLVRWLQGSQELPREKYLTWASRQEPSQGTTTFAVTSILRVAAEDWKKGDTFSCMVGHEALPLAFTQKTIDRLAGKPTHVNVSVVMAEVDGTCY
Description: as §1

[4] = molecular target: T2, Myeloma human IgG3 (Sigma-Aldrich Co. LLC) (human)
T2 construct: Bought myeloma protein
T2 sequence (constant, as listed by the source limits assumed): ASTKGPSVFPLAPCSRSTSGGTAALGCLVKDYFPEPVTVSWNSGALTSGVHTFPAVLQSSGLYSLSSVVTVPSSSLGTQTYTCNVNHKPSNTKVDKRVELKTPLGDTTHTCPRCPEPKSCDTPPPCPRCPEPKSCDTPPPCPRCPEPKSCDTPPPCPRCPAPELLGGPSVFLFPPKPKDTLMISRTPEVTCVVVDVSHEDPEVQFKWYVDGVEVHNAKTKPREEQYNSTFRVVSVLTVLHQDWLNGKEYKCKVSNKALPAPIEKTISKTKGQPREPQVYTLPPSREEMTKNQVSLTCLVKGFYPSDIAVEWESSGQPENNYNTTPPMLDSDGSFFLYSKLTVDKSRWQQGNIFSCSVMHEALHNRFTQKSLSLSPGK
Description: as §1

[5] = molecular target: Myeloma human IgA2 (Abcam) (human, UniProt P01877-1 1-340)
Sequence of Myeloma human IgA2 (Abcam) (P01877 other isoform, or with tags, fused parts or gaps): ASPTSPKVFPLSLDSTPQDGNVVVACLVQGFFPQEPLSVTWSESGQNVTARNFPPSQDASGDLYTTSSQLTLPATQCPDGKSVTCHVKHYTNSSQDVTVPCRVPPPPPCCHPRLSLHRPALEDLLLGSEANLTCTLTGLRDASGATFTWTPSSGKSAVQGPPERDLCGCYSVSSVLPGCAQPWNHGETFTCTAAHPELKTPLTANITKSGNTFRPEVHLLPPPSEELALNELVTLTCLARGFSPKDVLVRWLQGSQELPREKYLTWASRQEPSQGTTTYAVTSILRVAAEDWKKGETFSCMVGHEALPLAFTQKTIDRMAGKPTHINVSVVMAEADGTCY
Description: as §1

[6] = molecular target: Myeloma human IgD (Abcam) (human, UniProt P01880-1 1-384)
Sequence of Myeloma human IgD (Abcam) (P01880 other isoform, or with tags, fused parts or gaps): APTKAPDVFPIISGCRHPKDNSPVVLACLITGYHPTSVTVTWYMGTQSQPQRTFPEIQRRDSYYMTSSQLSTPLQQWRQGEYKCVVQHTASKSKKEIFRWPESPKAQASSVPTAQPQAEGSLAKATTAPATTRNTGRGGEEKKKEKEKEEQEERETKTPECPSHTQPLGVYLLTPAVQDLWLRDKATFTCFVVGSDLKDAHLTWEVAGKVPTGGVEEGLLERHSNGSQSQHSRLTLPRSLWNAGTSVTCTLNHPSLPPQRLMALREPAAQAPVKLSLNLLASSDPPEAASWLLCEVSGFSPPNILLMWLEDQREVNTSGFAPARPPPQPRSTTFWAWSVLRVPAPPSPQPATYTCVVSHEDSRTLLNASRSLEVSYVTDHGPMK
Description: as §1

[7] = molecular target: T3, Myeloma human IgG1 (EMD Millipore) (human)
T3 construct: Bought myeloma protein
T3 sequence (constant, as listed by the source limits assumed): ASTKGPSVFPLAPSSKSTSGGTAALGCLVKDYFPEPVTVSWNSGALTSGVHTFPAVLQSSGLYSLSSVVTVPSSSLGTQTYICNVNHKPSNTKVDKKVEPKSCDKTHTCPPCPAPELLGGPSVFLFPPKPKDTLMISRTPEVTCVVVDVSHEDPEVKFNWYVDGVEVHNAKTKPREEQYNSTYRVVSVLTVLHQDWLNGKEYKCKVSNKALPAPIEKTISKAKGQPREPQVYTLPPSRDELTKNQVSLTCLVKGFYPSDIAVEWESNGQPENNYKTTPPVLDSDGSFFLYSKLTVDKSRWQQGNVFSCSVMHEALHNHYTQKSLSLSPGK
Description: as §1

Sequence of Myeloma human IgE (Abcam) (P01854 other isoform, or with tags, fused parts or gaps): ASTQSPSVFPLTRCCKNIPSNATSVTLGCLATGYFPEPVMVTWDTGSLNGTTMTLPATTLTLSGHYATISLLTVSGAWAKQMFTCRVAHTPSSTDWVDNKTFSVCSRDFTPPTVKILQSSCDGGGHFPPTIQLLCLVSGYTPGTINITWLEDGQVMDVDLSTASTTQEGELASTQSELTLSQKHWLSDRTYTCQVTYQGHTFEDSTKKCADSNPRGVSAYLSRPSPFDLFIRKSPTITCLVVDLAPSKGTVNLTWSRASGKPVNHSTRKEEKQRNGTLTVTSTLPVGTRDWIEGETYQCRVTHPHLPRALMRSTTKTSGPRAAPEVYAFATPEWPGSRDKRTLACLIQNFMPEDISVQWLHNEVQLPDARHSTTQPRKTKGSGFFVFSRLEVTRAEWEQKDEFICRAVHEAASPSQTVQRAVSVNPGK

B1: MaI4-08-produced antibody (antibody, IgG1, V domains shown)
VH: EVQLQQSGPELVKPGTSVKMSCKASGYIFTSYILHWVKQKPGQGLEWIAYINPYNDGTKYKEKFKGKGTLTSDKSSSTAYMELSSLTSEDSAVYYCARSGGGYGNYAWFAYWGPGTLVTVST
VL: DIQMTQSPSSLSASLGERVSLTCRASQDIGSSLNWLQQEPDGTIKRLIYATSSLDSGVPKRFSGSRSGSDYSLTISSLESEDFVDYYCLQYASYPPTFGAGTKLELK
notes: Purified on protein G from hybridoma culture supernatant; POD-labelled for the Western blots
- absorbance at 450 nm [1]: 0.041
- absorbance at 450 nm [2]: 0.047
- absorbance at 450 nm [3]: 0.043
- absorbance at 450 nm [4]: 0.044
- absorbance at 450 nm [5]: 0.043
- absorbance at 450 nm [6]: 0.042
- absorbance at 450 nm [7]: 0.048
